Data from publication PMC10758017.

T1: TGFβRI/TGFβRII receptor complex (mouse (endogenous in MFB-F11)) (UniProt Q64729)
T1 sequence 1: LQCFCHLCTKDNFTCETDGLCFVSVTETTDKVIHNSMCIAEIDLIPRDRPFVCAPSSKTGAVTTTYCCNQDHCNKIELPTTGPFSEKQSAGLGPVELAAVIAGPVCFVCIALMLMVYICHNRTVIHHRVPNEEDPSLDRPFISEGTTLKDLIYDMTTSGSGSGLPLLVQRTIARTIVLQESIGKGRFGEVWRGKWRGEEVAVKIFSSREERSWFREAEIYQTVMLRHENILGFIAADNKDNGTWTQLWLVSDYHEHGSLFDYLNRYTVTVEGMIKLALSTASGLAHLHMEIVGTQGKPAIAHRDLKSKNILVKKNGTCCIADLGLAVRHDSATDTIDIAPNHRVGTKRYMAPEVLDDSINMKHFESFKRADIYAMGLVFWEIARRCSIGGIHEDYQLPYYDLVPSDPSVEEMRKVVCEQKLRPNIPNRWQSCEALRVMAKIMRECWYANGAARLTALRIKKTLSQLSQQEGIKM
T1 sequence 2: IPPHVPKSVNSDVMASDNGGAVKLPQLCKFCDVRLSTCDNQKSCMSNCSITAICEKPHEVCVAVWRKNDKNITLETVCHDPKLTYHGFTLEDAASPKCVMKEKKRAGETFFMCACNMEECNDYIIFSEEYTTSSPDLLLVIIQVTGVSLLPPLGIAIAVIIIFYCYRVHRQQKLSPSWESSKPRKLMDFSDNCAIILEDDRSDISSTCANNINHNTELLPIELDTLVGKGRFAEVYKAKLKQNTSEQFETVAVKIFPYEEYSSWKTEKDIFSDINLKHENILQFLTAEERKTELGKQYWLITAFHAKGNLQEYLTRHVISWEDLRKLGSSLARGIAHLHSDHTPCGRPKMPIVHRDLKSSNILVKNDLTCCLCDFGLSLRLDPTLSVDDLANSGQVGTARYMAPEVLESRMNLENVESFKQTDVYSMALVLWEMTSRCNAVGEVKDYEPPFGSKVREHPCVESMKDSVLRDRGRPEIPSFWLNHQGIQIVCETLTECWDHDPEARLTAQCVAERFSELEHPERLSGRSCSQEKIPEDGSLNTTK


How the values were obtained:
[1] = biological target: T1, TGFβRI/TGFβRII receptor complex (mouse (endogenous in MFB-F11))
[2] = biological target: T1, TGFβRI/TGFβRII receptor complex (mouse (endogenous in MFB-F11)); remark: listed apart in the source
[3] = biological target: T1, TGFβRI/TGFβRII receptor complex (mouse (endogenous in MFB-F11)); remark: listed apart in the source
[4] = biological target: T1, TGFβRI/TGFβRII receptor complex (mouse (endogenous in MFB-F11)); remark: listed apart in the source

| Binder | Smad3 mRNA, ddCt (qRT-PCR), IP at 50 μM against the reference inhibitor SB-525334 at 50 nM [1] | Smad4 mRNA, ddCt (qRT-PCR), IP at 50 μM against the reference inhibitor SB-525334 at 50 nM [2] | Smad2 mRNA, ddCt (qRT-PCR), IP at 50 μM against the reference inhibitor SB-525334 at 50 nM [3] | Jun N-terminal kinase (JNK1) mRNA, ddCt (qRT-PCR), IP at 50 μM against the reference inhibitor SB-525334 at 50 nM [4] |
| --- | --- | --- | --- | --- |
| DAAYCFRNV [peptide inhibitor 1.3 …] | -9.5 | -9.3 | -10.5 | -13.4 |
| AYCFRNVQD [peptide inhibitor 1.5 …] | 0.2 | 0.9 | -2.4 | -0.1 |
| LDAAYCFRN [peptide inhibitor 1.2 …] | -11.9 | -11.3 | -12.2 | -15.3 |
